Common to all, as to assay: purified protein, by the assay type
Common to all, as to parameters: DTNB thiol release, A412, continuous steady-state Michaelis-Menten kinetics of C-S lyase
Settings in all cases: pH 7.8; 37.0 °C

Substrate in data set [1]: CCCC(C)(CCO)SC[C@H](N)C(=O)O
The method, then: (§1) In vitro activity assays were performed using an Epoch2 (BioTek) plate reader. Reactions were measured in 96-well plate. A continuous assay, described previously[3] was used to measure 3M3SH. A 200 μL reaction contained […], variable amounts of substrate and 0.4 mM DTNB in 50 mM KPi and 200 mM NaCl, pH 7.8. […] Each reaction was incubated at 37 °C for 30 min. Release of the thiol 3M3SH was measured by reaction with DTNB to form 2-nitro-5-thiobenzoic acid (TNB) which is measured at A412 nm every minute. Background rate of DTNB decomposition was subtracted in each assay. Michaelis–Menten plots were derived from 6 to 8 substrate concentrations using Prism Version 5.01 (GraphPad) to calculate the Kcat and KM. Enzyme concentrations were assumed to be the concentration of PLP-bound enzyme with two active sites per enzyme. Velocity curves for all in vitro kinetics are shown in the supplementary information (Supplementary Information Figures S10–S12). Next, we cloned and overexpressed genes encoding a representative range of PatB-type enzymes, with two MetC proteins as controls (Fig. 2, denoted by coloured dots) and purified the proteins for biochemical analysis.

Substrate in data set [2]: N[C@@H](CCSC[C@H](N)C(=O)O)C(=O)O
On the procedure: as §1

Substrate in data set [3]: CC(C)(CCO)SC[C@H](N)C(=O)O
The method, then:
as §1

B1: EcMalY (Escherichia coli K-12) (protein)
chain: MFDFSKVVDRHGTWCTQWDYVADRFGTADLLPFTISDMDFATAPCIIEALNQRLMHGVFGYSRWKNDEFLAAIAHWFSTQHYTAIDSQTVVYGPSVIYMVSELIRQWSETGEGVVIHTPAYDAFYKAIEGNQRTVMPVALEKQADGWFCDMGKLEAVLAKPECKIMLLCSPQNPTGKVWTCDELEIMADLCERHGVRVISDEIHMDMVWGEQPHIPWSNVARGDWALLTSGSKSFNIPALTGAYGIIENSSSRDAYLSALKGRDGLSSPSVLALTAHIAAYQQGAPWLDALRIYLKDNLTYIADKMNAAFPELNWQIPQSTYLAWLDLRPLNIDDNALQKALIEQEKVAIMPGYTYGEEGRGFVRLNAGCPRSKLEKGVAGLINAIRAVR
notes: full length; N-terminal MGGGFA and C-terminal ENLYFQG-His10; expressed in E. coli MC1061
B1: in data set [1], the Km was determined as 17490 µM, the kcat turned out to be 4.4 s⁻¹ and the kcat/Km turned out to be 252 M⁻¹ s⁻¹. Moreover, in data set [2], the Km amounted to 2200 µM, the kcat is 7.63 s⁻¹ and the kcat/Km came to 3470 M⁻¹ s⁻¹.

B2: CjAecD (Corynebacterium jeikeium K411) (protein)
chain: MNATTQNNNLENTQNTCPQDSAVSVPGLATLRARGTMKWTVYDEDVLPLWVAETDFDTCPAVKQAIQSGVDREYFGYERRNQSVEKALAGFLDRRFGWQIEPTWVRLVPDVVKGVATAIDELTPQGSDVIVPVPSYHPFFDVPSAVKRPKVEVEMTKVKKNGAEEWAFDYAALEAAFASTDNPAGVGAMIVCNPYNPLGRAWRPEELAKLVELAAKYNVRLISDEIHAPVVYAPHKHTPLATLSETAARVTVTVLATSKGWNTAGLHCAQMIFTNPDDRAAMAKVSPLRTGSASTLGQVAAEAAYTDGEAWLDSELEYLEGNLDLLERRLPEVLPGAKFIRPEASFLLWVDLSEVPGLADNPGQKLLEGARVAFNEGTMFGAQGAGHVRINFGTSREILNEALDRIAEFAKEHANN
notes: full length; expressed in E. coli MC1061
On to B2, for which, in data set [1], the Km stood at 740 µM, the kcat is 1.71 s⁻¹ and the catalytic efficiency (kcat/Km) amounted to 2300 M⁻¹ s⁻¹. In data set [2], the Km stood at 210 µM, the kcat was found to be 1.18 s⁻¹ and the kcat/Km stood at 5520 M⁻¹ s⁻¹. In addition, in data set [3], the Michaelis-Menten constant (Km) turned out to be 800 µM, the kcat is 2.65 s⁻¹ and the kcat/Km is 3160 M⁻¹ s⁻¹.

B3: BsPatB (Bacillus subtilis subsp. subtilis str. 168) (protein)
chain: MNFDKREERLGTQSVKWDKTGELFGVTDALPMWVADMDFRAPEAITEALKERLDHGIFGYTTPDQKTKDAVCGWMQNRHGWKVNPESITFSPGVVTALSMAVQAFTEPGDQVVVQPPVYTPFYHMVEKNGRHILHNPLLEKDGAYAIDFEDLETKLSDPSVTLFILCNPHNPSGRSWSREDLLKLGELCLEHGVTVVSDEIHSDLMLYGHKHTPFASLSDDFADISVTCAAPSKTFNIAGLQASAIIIPDRLKRAKFSASLQRNGLGGLNAFAVTAIEAAYSKGGPWLDELITYIEKNMNEAEAFLSTELPKVKMMKPDASYLIWLDFSAYGLSDAELQQRMLKKGKVILEPGTKYGPGGEGFMRLNAGCSLATLQDGLRRIKAALS
notes: full length; N-terminal MGGGFA and C-terminal ENLYFQG-His10; expressed in E. coli MC1061; homodimer, PLP on Lys234
B3: in data set [1], the Km came out at 380 µM, the kcat is 1.92 s⁻¹ and the kcat/Km amounted to 5110 M⁻¹ s⁻¹. Moreover, in data set [2], the Km is 660 µM, the kcat amounted to 0.55 s⁻¹ and the kcat/Km is 839 M⁻¹ s⁻¹. In data set [3], the Michaelis constant (Km) turned out to be 400 µM, the kcat worked out at 0.945 s⁻¹ and the catalytic efficiency (kcat/Km) worked out at 2360 M⁻¹ s⁻¹.

In general, Km refers to the substrate concentration at which the rate is half of its maximum. What is called kcat is the maximal rate divided by the concentration of active sites. The kcat/Km is the second-order rate constant that governs catalysis at low substrate concentration.
